Target: recombinant HAstV MLB1 capsid spike domain (residues 399-653 of the HAstV MLB1 capsid protein) (Human astrovirus MLB1)
Assay: SEC

For “recombinant HAstV MLB1 capsid spike domain (residues 399-653 of the HAstV MLB1 capsid protein) (domain or fragment)”, the stoichiometry N was 2.

Reference: paper PMC9722636
